Laboratory results from PMC3163394 (Cell, 2011).

Biological target: the molecule itself
Experiment: crystal structure

B1: Shb17 (H13A), catalytically inactive mutant of sedoheptulose-1,7-bisphosphatase (enzyme, S. cerevisiae)
chain: MPSLTPRCIIVRAGQTEWSKSGQYTGLTDLPLTPYGEGQMLRTGESVFRNNQFLNPDNITYIFTSPRLRARQTVDLVLKPLSDEQRAKIRVVVDDDLREWEYGDYEGMLTREIIELRKSRGLDKERPWNIWRDGCENGETTQQIGLRLSRAIARIQNLHRKHQSEGRASDIMVFAHGHALRYFAAIWFGLGVQKKCETIEEIQNVKSYDDDTVPYVKLESYRHLVDNPCFLLDAGGIGVLSYAHHNIDEPALELAGPFVSPPEEESQHGDV
stoichiometry N: 2
